Measurements taken from publication PMC6706469.

How the values were obtained:
[1] = molecular target: P34 (trypanosome-specific protein), endogenous (Trypanosoma brucei (endogenous in T. brucei cells)); assay: co-IP; whole-cell extract of 3×Ty-TbL11 T. brucei cells, without RNase A; beads with antibody to the target (anti-P34/P37, anti-TbL5 or anti-TbRpf2); anti-Ty Western blot of pellet and supernatant; amount in the pellet relative to pellet plus supernatant
[2] = molecular target: P37 (trypanosome-specific protein), endogenous (Trypanosoma brucei (endogenous in T. brucei cells)); assay: as above
[3] = molecular target: TbL5 (Trypanosoma brucei ribosomal protein L5), endogenous (Trypanosoma brucei (endogenous in T. brucei cells)); assay: as above
[4] = molecular target: TbRpf2 (Trypanosoma brucei homologue of Rpf2), endogenous (Trypanosoma brucei (endogenous in T. brucei cells)); assay: as above
[5] = molecular target: P34 (trypanosome-specific protein), endogenous (Trypanosoma brucei (endogenous in T. brucei cells)); assay: co-IP; whole-cell extract of 3×Ty-TbL11 T. brucei cells, with RNase A added to digest cellular RNA; beads with antibody to the target (anti-P34/P37, anti-TbL5 or anti-TbRpf2); anti-Ty Western blot of pellet and supernatant; amount in the pellet relative to pellet plus supernatant
[6] = molecular target: P37 (trypanosome-specific protein), endogenous (Trypanosoma brucei (endogenous in T. brucei cells)); assay: as above
[7] = molecular target: TbL5 (Trypanosoma brucei ribosomal protein L5), endogenous (Trypanosoma brucei (endogenous in T. brucei cells)); assay: as above
[8] = molecular target: TbRpf2 (Trypanosoma brucei homologue of Rpf2), endogenous (Trypanosoma brucei (endogenous in T. brucei cells)); assay: as above
[9] = molecular target: Recombinant P34 (Trypanosoma brucei); assay: co-IP; in vitro, recombinant TbL11 incubated with the recombinant target, without 5S rRNA; precipitated with antibody to the target; anti-His Western blot; amount in the pellet relative to pellet plus supernatant
[10] = molecular target: Recombinant TbL5 (Trypanosoma brucei); assay: as above
[11] = molecular target: Recombinant TbRpf2 (Trypanosoma brucei); assay: as above
[12] = molecular target: Recombinant P34 (Trypanosoma brucei); assay: co-IP; in vitro, recombinant TbL11 incubated with the recombinant target, with in vitro-transcribed 5S rRNA added; precipitated with antibody to the target; anti-His Western blot; amount in the pellet relative to pellet plus supernatant
[13] = molecular target: Recombinant TbL5 (Trypanosoma brucei); assay: as above
[14] = molecular target: Recombinant TbRpf2 (Trypanosoma brucei); assay: as above

| fraction in the pellet (pellet relative to pellet plus supernatant) [1] | fraction in the pellet (pellet relative to pellet plus supernatant) [2] | fraction in the pellet (pellet relative to pellet plus supernatant) [3] | fraction in the pellet (pellet relative to pellet plus supernatant) [4] | fraction in the pellet (pellet relative to pellet plus supernatant) [5] | fraction in the pellet (pellet relative to pellet plus supernatant) [6] | fraction in the pellet (pellet relative to pellet plus supernatant) [7] | fraction in the pellet (pellet relative to pellet plus supernatant) [8] | fraction in the pellet (pellet relative to pellet plus supernatant) [9] | fraction in the pellet (pellet relative to pellet plus supernatant) [10] | fraction in the pellet (pellet relative to pellet plus supernatant) [11] | fraction in the pellet (pellet relative to pellet plus supernatant) [12] | fraction in the pellet (pellet relative to pellet plus supernatant) [13] | fraction in the pellet (pellet relative to pellet plus supernatant) [14] | Substance |
| --- | --- | --- | --- | --- | --- | --- | --- | --- | --- | --- | --- | --- | --- | --- |
| 0.16 | 0.16 | 0.53 | 0.07 | 0.53 | 0.53 | 0.67 | 0.58 |  |  |  |  |  |  | 3×Ty-TbL11 (Ty-tagged Trypanosoma brucei ribosomal protein L11) (natural protein) |
|  |  |  |  |  |  |  |  | 0.96 | 0.92 | 0.86 | 0.85 | 0.9 | 0.83 | Recombinant TbL11 (Trypanosoma brucei ribosomal protein L11) (natural protein) |
